Test: protease stability score; higher = more stable; yeast display proteolysis, trypsin and chymotrypsin;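 note: log10 excess protease needed over predicted unfolded state with 0 meaning unfolded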

With “DEETKDWVDRFFQALHKNNEEELEQLMDPNAHINIGDKVWHGREEFRREHERQAKHWRFTQDITRIDVKGNKARLRVRFRMNYDGKPKDSKARIEIIIHNGKLKEYRQKDDG” the protease stability score was 0.351.

Sequence “DEETLHDVLRHLKHGDPDTIDRMADENAKAVIGNQEIHGREEISKIAKDLERKVDHQEVHKVEIDGDKATVTYRQNVNGRTVYMYVIVQNHDGHIKYVVIKARDEDEMRKWEENLS” has a protease stability score of 0.742.

“DEETLRQANRKIQEFLSTNNFDELAKQMDKDVQIRIGDKEVHGRKDAQKMLTDIKDDADHASVHHVDVRGDKAKVRFEVNHNGSVKDVTVTITFHNGRIKRAKWHDT” gave a protease stability score of 0.089.

Sequence “DEETNKKFASELVHVLRTGDDERLKSMADENATLEVGDKTFHGREEMRKAAEEWQKEIDDLKIESLHVNGDKVVIHFVFTVNGRTDRQIMHLHFDNGKIKSAKMHSG” has a protease stability score of 0.96.

In the case of “DEETNQELLERLIDLISHGDEDEFNRQADEEAKAQYGDTRYHGREEVVKAIKTLADRVDHWHIESYHVHGNEMVIDMRWTVNGRTRRANIVMEAENGRIKYVQMDDQ”, the protease stability score is reported as 0.765.

For “DEETQFKKLMETMKEQNKRGDPRKHEEYVDPNAKVRVGDQDLHGREDVRRVLQEWAERADHVDLKVESMSVHNGKQTAIMVIVLRYNGRNETRRVQVVFDKSNGTVRLVNLRNS”, the protease stability score was 0.856.

“DEETQNTRMEEFFKALKTGDEDRAVELADENVKIEIGDRSVSGREVVRHYVQDFQRRVDHNEIKSMRVHNGRAEVTMVVNHNGTTDTRVVHLEAENGRVRRISVDHP” showed a protease stability score of 0.448.

In the case of “DEETRKRVETLLEALETGNPEEISKQIDPNATVVVGDKTLHGREDIRDWVRRQHEKIRVEYKHVQIRIHNGRAHVTFEAVVEVNGKPKTVRAQMVFTVSNGKFQHIELHLDEEWKKMEKG”, the protease stability score is reported as 1.38.

Sequence “DEETTDILNELLRAYQNNDSKRIVELADPNASANIGDKQYHGMEDAARTQVKRMRQIHVEIKHVSSDNQGEKIELEMRFVDNHNGKPEQSTRNMTVVMKNGKVDKFTIRDDG” has a protease stability score of 0.085.

Sequence “DEEVADNFRKLLHNLEQGDKRRVKEMVDENAHIVVGDKVYHGWETAAQDLVRLMHEIHFTITSVHVEVSNGRVRLKVHMKINVNGKPFRMVFTQEIEAENGTVKYINVQFDPEVLRRIES” has a protease stability score of 0.97.

Work on “DEEVAEQAAKLLEHNDFEKLVDMVDPNVDVEYGDKTVSGRNRVKRVMEKWTRRYDHYEIHTYSISNGRLSADVRAVVNGREVRYVQTIRVHNGRIQKMKIDVTDEDDERNLRKLES” yielded a protease stability score of -0.161.

Work on “DEEVAKKMMEAWMKALQNGNDEQMKKLYDPTVRWEDGNTEKQGLEVVVKLVQTVKKKGIEFQVRKAKVKGNQVEVHYDMKVGDDTVTFTVQFRAQGGRIQEVRVEISEEARKAVKKG” yielded a protease stability score of 1.22.

With “DEEVAKKMMETWQKVVQKGNDKDARELYKPNGEWVDGDEKHQGVDYVVKALQRVKKYGAEFQVRKAKVEGDTATMVYDLRIGDKTVTFVVQMQADGGRVERVQVKMNEEAKKAVTHG” the protease stability score was 0.786.

“DEEVAKRMAETWVKAVEKGDTDQVQKVYKPNVEWVAGDEKHQGVEVVKKMMQKVKKLGVEFQLRKRKVEGGTVEFHYDMKNGNDTVTFTVRIDAEGGRVDRVEVEFDEKAQKVVKKG” showed a protease stability score of 0.183.

“DEEVAKTMAEQWIKAVQKGDKEKLVKHYKPNVQWIDGDERTQGTDVVRKVMETAQKRGVEFQVRKRKVEGDQFEIVYDANVGNKTATFDIKFQVKGGKMEEMRVEVDERAKKVRKEG” showed a protease stability score of 0.094.

Sequence “DEEVANTAVKVAQTGDFQQMVEHADPNVRAVVGDKEYHGREQFQEAMTIIRERVDHYHVDKITIEGDDVRVDMQIDFNGRRVRAEVSIRASNGRIKEMHINARDEDDHRTLRKLLK” has a protease stability score of 0.432.

In the case of “DEEVAQDVRRNVERGDWKRWAELADENARVSVGDNTYEGRNDWHKYVKDLEHQVDHFEVKHITIENGKIKVDFVLTVNGHEVRMKQVIVVTNGRISRLRIQATDTDVQRQLNEAMR”, the protease stability score is reported as -0.066.

“DEEVAREMMTKWMRAVQKGDPDTVDKIYNPNGKWKAIDTERQGSEHIKKVMQRVKKQGVEFQVRKAKVEGNQAVVIYDFKLANKTVTFTVELRVQGGRVKEVRVEVDEEAKKDMKKG” showed a protease stability score of 1.14.

“DEEVEDLYQKIKRAQETGDHKQLRDNFDEEVRIKVGDKTIHGMTRAAKKITREWRHINIDVKVEHVQISNGRLRVRYRFVENDNGKPKTTAANFSMEAHNGRVKHVHVQDDS” gave a protease stability score of 0.112.

With “DEEVEEQVKELKRILETGDEDRMQENADPNVRAVYGNKEIHGRDQLREEIRSLKDEMRYEVEIKDYRIRPNEADVRATWHMRVNGQPMRQEVKVKIKFHNGKLKVFVLDFDEEHEKRSRK” the protease stability score was -0.054.

Work on “DEEVEEVIHRLVKALRTNNPDQVNQQLDKDARIKVGDKEIQGRDRYKRTVEQKIQEMNFHIHIKRLEVQGDKVRITAQESSEHNGQPRQRRLKFELRVKNGRVKSAEYHVDK” yielded a protease stability score of 0.183.

In the case of “DEEVEHQFRTYERALRQGDEQELRDQVDKNAEIEYGDRKIHGMDRAARKIARRVRELRVEDNFVSLEVKENHVQKNVDVVIEVNGRPVRFRADMQVQVHNGKVKEIRVQVPEEVQKRVKE”, the protease stability score is reported as 0.127.

With “DEEVERLFKRFMSAVDEGNPDELKKQIDPNAKQHIGDKTYHGRETIASRIVKRRQKMRVTWKSISITDHNGTIKVTAHAVFNHNGRPKEVQLDIEVRAHGDQMKNFRVQVRG” the protease stability score was 0.328.

With “DEEVFDEFIKHMETGDFRYLQRMFDPNAKASVGNKTVHGREQVQTLLEQLHSQVDHYHLKDVDNNENRMRVHFVLNVNGKNIEAENVFEVRNGRLKHLSIKFRNPEDQEDARRRLE” the protease stability score was 1.12.

With “DEEVHKAITHYIEALHKGDPDRAANQMDENVRIEIGDKSITGREHAKHHLERLFKQMEFRITVDRVEVHNGTATAEIHWSSDRNGKPDSNTRRMTAEVHNGKIKQIVFKSDS” the protease stability score was 1.02.

With “DEEVKDFAEKMLKNWHTGNWQHFAKLLDENAKIVIGDKRYHGTENFERMADSIQKQMSIRIESMSVEVHGEKAKFSATVVENHNGNPTRFHISAEVTVRGDKVDHFNQQNDS” the protease stability score was 1.04.

“DEEVKHSVDKYLQAVRQGDPDKLREMADENVTVDIGDTTYHGMSEYARRVVERQKKIRIHYDLKSLTVSGNHVKIDQEVVKHHNGKPERNRVTVIMHLNNGRIQSMSVKVDG” gave a protease stability score of 0.277.

In the case of “DEEVKRLAERILSALERGDPQQISDNFDPNARLEIGDKRIHGREELRKYVDTVRKTQRISIRSFRVSVHNGQVDIDIHFENEHNGDPDERRRSINIQASNGKAKNVVYQDNK”, the protease stability score is reported as -0.336.

Sequence “DEEVKSRADEFIKALKTGDPETISRLMDPNAQVEVGDKTIHGRENIMREIHNLKHRMNLSMEINNVDVQGDTVNIDAVVRFTHNGKPSEHKVDIQVVAQGDKIDHVVFDSTK” has a protease stability score of 1.22.

Work on “DEEVKSVAEQLMDVLQKGDPKQMSRLADKDVKINVGDKQYDGSEQLEKAVEDWKDEMRFQIEHVSISARGDKANVDFHVEFSFNGKPHSREVKVYIKVHNGRIKYLEYRVDPNEERKIKK” yielded a protease stability score of -0.267.

“DEEVKTLVERLVEALNTGDPDSAMHLVDENAKFQYGDRELHGRENVHKFVEDMKREIRIDMEVKRLRVEPGRVKLTAEFSLSVNGQPDHQSVTMRATAHNGQLKDVQFRLPPEKLEKLKS” gave a protease stability score of -0.199.

Sequence “DEEVKTVAEEFWKAIQTGDPDQVKTQVDENARMRVGDKSIHGSDNISTDVERERKEIKVKYNIQDIRASNGTVRVRMDVRRNHNGKPREHEQTMTQTIDNGKIQDVNISTDG” has a protease stability score of -0.46.

Work on “DEEVLDDVVKVMHQNDFSRLKELFDKNATIEVGDKRYHGREEAHKLMDIIKKKVDHVRIDKVHKSGNKVRIDAILEYNGNHMKVVFVIKLHNGQAKNIHIEFTSENLQNKFKTLVD” yielded a protease stability score of 1.02.

With “DEEVLDFVKTMIKVEETGDEEKLKEMFDKNVKARVGDKKYHGMDHQARTIRKERESIKFKIKSITMRYKDGRVHASARVVRHENGKPDEYRETYVLQIHNGKVKTYSKQTDS” the protease stability score was -0.188.

“DEEVLDTVLKALSTNNEEQFHRMADPNDRVSYGDKSIHGMVKAADVQREFRKRVDHIHIQRYDSEGDKAKVTYVAHVDGRNINITITFDVRNGTIRSINIRARNEKNQKRFEEVVG” gave a protease stability score of 0.245.

“DEEVLEEAKKRVETNDPQEFAHNVDENAEMTIGDKQYTGRDQFKHVADAWYERADKIEIKSYTTHNGKIHVNMRMRFDGRDIVFIVEFRVKNGRVQEYKFHVRDETAKTLQQQMLS” showed a protease stability score of 0.231.

Sequence “DEEVLEQVKKYIDAEKSNDPDQAVKLFDENADMQIGDKRVNGREQIKTEIERRIREMNRDVEVTHVHVDNGRATLTVRLRFTVNGKPHEDRFIIQAHATNGRINTLTVHFDEQSKRDVDK” has a protease stability score of 0.741.

“DEEVLHLADRWWEAVDRGNERQLKDNADPNVKVRVGDKTIRGRDQMAKEVRHRREEQRVNYHHFRQDVSGDKANVTVHYTREHNGKPETNVIEVVFQAHNGKIVSITVRHDG” showed a protease stability score of -0.148.

“DEEVLKVAHDWFENVTQGDPDKLSRLMDKDARVNVGEKQYHGREEIMRQHERENKEAEVTFQKMDFKVTGDRAVVNVRVDVNINGQPFEVTFIFKLEVHNGRIKQIEMDFSEEQWDKLRR” gave a protease stability score of -0.211.

For “DEEVLQEYREAFEEGDEERIQNLADENVKVTYGDKDYHGRHDMRKFMKWLKRAADRIEIKRYTQTGDKLRIVVVMHVNGQTIKFSVVVRVHNGNVKSVRMDATSEEDRKHFERVVD”, the protease stability score was 0.755.

For “DEEVNHQMSRMWEANKRGDEHTLRELVDPNAKIDVGDKRVHGMEEYVKQVRNRREDLRWRFKIDHMSVDGDTVKFRARAVENENGRPQSYKFEQNVRVHNGKLTEQNQQDHG”, the protease stability score was 0.181.

Work on “DEEVQELVERIMTAFRTGNPEEVHKNLDPNAHIEVGDKRLHGMETIVHTIERKLRHARIDMKIDEMEVRNGRVEARVSFHVDVNGEPYSNSFSFQIEARNGKVKKVRVQIDPRDQRKMDS” yielded a protease stability score of 0.877.

In the case of “DEEVQNLFEELVEAVKTGDEDRLRENVDPNATFEYGDKTFHGMDTFVKTVKKIRESMRLTLEVKSYEVQGDKVKAEVDAKQDHNGQPVSYTMDLHIDARNGKVKRIVRQVPEEDKTRIER”, the protease stability score is reported as -0.032.

“DEEVQRQLENNWQKMREGDEEHLTRHVDENARFDVGDKRVRGMENYVKDVRREREEMHVNMTYDDMHVQGNEIRFTVRARWDVNGKPYDDNFDHKYEYHNGRLKSAHVRVDEDFERKRRK” showed a protease stability score of -0.089.

With “DEEVREVVKKMLEALKTGNSEQVRRNIDPNARLHVGEFDYHGQTQISEAVKRLSNEIKINYKDMKMRLHNGRVDVKVHQQNNSNGKPEEKTWRATIVAKNGRIKEIDQRDDK” the protease stability score was -0.481.

Work on “DEEVRHVAEEHFRAFSDNDPDRAKQLADPNARFQYGDREIHGMEDFVKHLETLKRDMRIQIHIKSMDVHNGRVDVTFNLMAHVNGQPFRIEVRATFEAHNGHLVEVQYRFDKKWQKTLES” yielded a protease stability score of 0.861.

“DEEVRKAYHDAMKAEEKGDEDRIRELFDPNARVQVGDKTYQGREDISHNLAREQKHARYHIKHVDLQVHNGRLTVKQTYDFQHNGQPNSDRDKATIEADGENIKDVEVKQNP” gave a protease stability score of -0.27.

“DEEVSEAVQRYLNALKHNNPDQVQEQMDPNARVQYGDKVLTGREDIKTFMDTKIEQMRLEIKSVSVDVHGEEVRVEADVVYTHNGQPRRNKITITARVHNGVFKSMRVETRG” showed a protease stability score of -0.064.

“DEEVVHDLENQFRKNNWEEFARQADENAKVNIGEFEISGRSQIEEWAHRVKKQVDHIDVKHVSYDEDHLRMRVVVVVNGRKFDFEVIINVSNGEVKHMEVRFRDPSQETEWLNQIN” showed a protease stability score of 1.61.

Work on “DEEVVKLLLELMKAWRTGDRDKAVKLMDPNVEIQVGDTYIHGREQNREEIKRIKDEIRWELSVKSYNQHNGQARIDADVTINVDGHPTHYRVDIRAEATNGEVKKITYNVPEEVLEEVKR” yielded a protease stability score of 0.026.
